In this assay the target is un13d_human UNC13D (UniProt Q70J99).

The results in this text go back to IntAct's records for PubMed 33513601.

un13d_human UNC13D, sequence (Q70J99 whole entry): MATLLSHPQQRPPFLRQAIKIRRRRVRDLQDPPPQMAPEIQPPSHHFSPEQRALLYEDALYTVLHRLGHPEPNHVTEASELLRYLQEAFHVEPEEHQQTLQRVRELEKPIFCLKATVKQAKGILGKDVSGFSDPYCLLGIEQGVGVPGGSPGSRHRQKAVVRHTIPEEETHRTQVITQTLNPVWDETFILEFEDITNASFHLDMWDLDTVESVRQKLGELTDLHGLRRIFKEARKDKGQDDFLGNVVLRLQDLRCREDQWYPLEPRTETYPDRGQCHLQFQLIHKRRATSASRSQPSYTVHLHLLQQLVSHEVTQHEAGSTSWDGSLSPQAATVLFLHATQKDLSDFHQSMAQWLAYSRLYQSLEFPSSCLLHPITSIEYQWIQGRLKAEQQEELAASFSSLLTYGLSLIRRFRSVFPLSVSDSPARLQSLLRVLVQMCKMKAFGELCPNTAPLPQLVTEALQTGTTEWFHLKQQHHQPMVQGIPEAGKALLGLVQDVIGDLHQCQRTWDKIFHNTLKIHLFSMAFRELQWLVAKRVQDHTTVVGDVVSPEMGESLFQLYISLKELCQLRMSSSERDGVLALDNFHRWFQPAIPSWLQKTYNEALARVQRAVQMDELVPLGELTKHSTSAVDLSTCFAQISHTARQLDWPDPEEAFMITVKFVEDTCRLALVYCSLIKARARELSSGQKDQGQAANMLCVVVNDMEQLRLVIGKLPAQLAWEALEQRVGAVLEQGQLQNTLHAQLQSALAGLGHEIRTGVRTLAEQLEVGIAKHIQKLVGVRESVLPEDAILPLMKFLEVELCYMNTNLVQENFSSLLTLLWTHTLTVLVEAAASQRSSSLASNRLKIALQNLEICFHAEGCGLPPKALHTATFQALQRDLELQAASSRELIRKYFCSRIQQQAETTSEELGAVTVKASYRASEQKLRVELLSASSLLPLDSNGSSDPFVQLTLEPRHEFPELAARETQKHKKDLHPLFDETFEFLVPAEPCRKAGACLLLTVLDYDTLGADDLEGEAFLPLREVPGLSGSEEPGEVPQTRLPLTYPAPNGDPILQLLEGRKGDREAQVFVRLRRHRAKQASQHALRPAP
Rho-related GTP-binding protein RhoG (Homo sapiens), P84095 Q61L, sequence (P84095 whole entry Q61L): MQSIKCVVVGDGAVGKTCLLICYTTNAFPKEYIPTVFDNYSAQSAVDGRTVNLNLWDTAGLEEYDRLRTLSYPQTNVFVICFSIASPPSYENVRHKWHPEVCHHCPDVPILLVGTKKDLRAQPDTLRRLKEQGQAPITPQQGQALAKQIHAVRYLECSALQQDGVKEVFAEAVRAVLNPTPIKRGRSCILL

As for “Rho-related GTP-binding protein RhoG (Homo sapiens), P84095 Q61L”, the “effect of a mutation on the interaction” value is “with no effect”.
